Measured values reported in patent publication US10240123B2, “Method for preparing induced paraxial mesoderm progenitor (IPAM) cells and their use” (INSERM (INSTITUT NATIONAL DE LA SANTE ET DE LA RECHERCHE …, priority 2011, dated 2019).
Entries after “also recorded” stand apart in the source; their conditions may differ.

B1: R-spondin3: secreted protein of the R-spondin family that activates the Wnt signaling pathway; recombinant (protein, UniProt Q9BXY4 22-272, looked up)
R-spondin-3: QNASRGRRQRRMHPNVSQGCQGGCATCSDYNGCLSCKPRLFFALERIGMKQIGVCLSSCPSGYYGTRYPDINKCTKCKADCDTCFNKNFCTKCKSGFYLHLGKCLDNCPEGLEANNHTMECVSIVHCEVSEWNPWSPCTKKGKTCGFKRGTETRVREIIQHPSAKGNLCPPTNETRKCTVQRKKCQKGERGKKGRERKRKKPNKGESKEAIPDSKSLESSKEIPEQRENKQQQKKRKVQDKQKSVSVSTVH
B2: R-spondin2: secreted protein of the R-spondin family that activates the Wnt signaling pathway; recombinant (protein, UniProt Q6UXX9 22-243, looked up)
R-spondin-2: QGNRWRRSKRASYVSNPICKGCLSCSKDNGCSRCQQKLFFFLRREGMRQYGECLHSCPSGYYGHRAPDMNRCARCRIENCDSCFSKDFCTKCKVGFYLHRGRCFDECPDGFAPLEETMECVEGCEVGHWSEWGTCSRNNRTCGFKWGLETRTRQIVKKPVKDTILCPTIAESRRCKMTMRHCPGGKRTPKAKEKRNKKKKRKLIERAQEQHSVFLATDRANQ
B3: Dkk1: secreted extracellular Wnt antagonist, canonical Wnt inhibitor (protein, UniProt O94907 32-266, looked up)
Dickkopf-related protein 1: TLNSVLNSNAIKNLPPPLGGAAGHPGSAVSAAPGILYPGGNKYQTIDNYQPYPCAEDEECGTDEYCASPTRGGDAGVQICLACRKRRKRCMRHAMCCPGNYCKNGICVSSDQNHFRGEIEETITESFGNDHSTLDGYSRRTTLSSKMYHTKGQEGSVCLRSSDCASGLCCARHFWSKICKPVLKEGQVCTKHRRKGSHGLEIFQRCYCGEGLSCRIQKDHHQASNSSRLHTCQRH
B4: Noggin: recombinant protein known to inhibit BMP4 (protein, UniProt Q13253 28-232, looked up)
Noggin: QHYLHIRPAPSDNLPLVDLIEHPDPIFDPKEKDLNETLLRSLLGGHYDPGFMATSPPEDRPGGGGGAAGGAEDLAELDQLLRQRPSGAMPSEIKGLEFSEGLAQGKKQRLSKKLRRKLQMWLWSQTFCPVLYAWNDLGSRFWPRYVKVGSCFSKRSCSVPEGMVCKPSKSVHLTVLRWRCQRRGGQRCGWIPIQYPIISECKCSC
B5: Follistatin: recombinant protein BMP inhibitor (protein, UniProt P19883 30-344, looked up)
Follistatin: GNCWLRQAKNGRCQVLYKTELSKEECCSTGRLSTSWTEEDVNDNTLFKWMIFNGGAPNCIPCKETCENVDCGPGKKCRMNKKNKPRCVCAPDCSNITWKGPVCGLDGKTYRNECALLKARCKEQPELEVQYQGRCKKTCRDVFCPGSSTCVVDQTNNAYCVTCNRICPEPASSEQYLCGNDGVTYSSACHLRKATCLLGRSIGLAYEGKCIKAKSCEDIQCTGGKKCLWDFKVGRGRCSLCDELCPDSKSDEPVCASDNATYASECAMKEAACSSGVLLEVKHSGSCNSISEDTEEEEEDEDQDYSFPISSILEW

Columns and labels:
Msgn1RepV mouse ES cells = assay: Msgn1RepV reporter mouse ES cell differentiation, YFP+ (iPAM) cells by flow cytometry; format: cell-based; conditions: for effect on number of YFP+ cells (iPAM induction): 4 days of differentiation
Description: Undifferentiated mouse ES cells […] derived) were maintained on gelatin-coated dishes in DMEM supplemented with 15% fetal bovine serum (FBS; from PAA), penicillin, streptomycin, 2 mM L-Glutamine, 0.1 mM non essential amino acids, 1 mM sodium pyruvate, 0.2% β-mercaptoethanol and 1,500 U/mL LIF. ES cells were co-cultured with mytomicin-inactivated MEFs (feeders). Undifferentiated human ES cells were cultured on plates coated with matrigel (BD Biosciences) in mTeSR medium ([…] Technologies). Cultures were maintained in an incubator in 5% CO2 at 37° C. ES cells were trypsinized and plated at various densities in gelatin coated, feeder-free, 24 well plates directly in serum-based (15% FBS) or serum-replacement (15% KSR, Invitrogen) conditions supplemented with factors, and DMSO (Sigma). Recombinant proteins were obtained commercially (R&D) and stock solutions were prepared according to manufacturer's recommendation. The GSK-3ß inhibitor CHIR99021 and the BMP type I receptors inhibitor Dorsomorphin were purchased from Stemgent and prepared according to the manufacturer's recommendations. Fluorescent reporter analysis and image acquisition were done on a Zeiss Axiovert system. Cell cultures were dissociated by trypsinization, analyzed by flow cytometry on a FACScalibur (BD Biosciences) according to YFP expression. Data were further analyzed with MoFlo software (Beckman Coulter) and FlowJo software. In order to optimize the differentiation conditions for paraxial mesoderm progenitors, we developed a manual screening assay, testing candidate growth factors and drugs interfering with various signaling pathways on ES cells. The […] reporter cells were plated at a defined density in 24-well plates coated with gelatin (0.1%). Two basal culture media were selected: a DMEM based medium containing 15% fetal bovine serum (FBS, high serum) and a defined serum-free medium containing 15% KSR (Invitrogen/Gibco). These basal media were supplemented with candidate factors on day 0 of differentiation. Control and experimental conditions were cultured in parallel. Cells were left to differentiate for three to four days with medium changed on day 2 or 3. Cell cultures were analyzed on day 3 and 4 of differentiation visually and by flow cytometry for YFP+ population quantification.

BMP4 = BMP4 and PSM marker expression in Msgn1-YFP+ cells (microarray, qRT-PCR); format: cell-based, mouse; conditions: for iPAM maturation, PSM specific marker expression: added to differentiation medium
Description: Mouse E9.5 embryo PSMs were microdissected and processed as previously described (Krol et al, 2011), and prepared samples were run on Affymetrix GeneChip arrays. For differentiated cell cultures, iPAMs were sorted by flow-cytometry based on their Msgn1-YFP+ expression, and samples were prepared for microarrays. Experiments were conducted on biological triplicates. Datasets were processed using Affymetrix Microarray Suite (MAS) 5.0. Total RNA was extracted from ES cell cultures using Trizol (Invitrogen) or with the […] plus mini-kit (Qiagen). RT-PCR was performed on 5 ng total RNA using QuantiFast SYBR Green RT-PCR Kit (Qiagen), appropriate primers and run on a LightCycler 480II (Roche). GAPDH was used as the internal control. To counteract this BMP4 activity, we tested the effect of addition of recombinant Noggin (Nog) protein known to inhibit BMP4, to the differentiation medium. […] We further defined both the optimal concentration and timing of Noggin addition. […] To better characterize the impact of Noggin on Msgn1-YFP+ cells, we performed microarrays on the Msgn1-YFP+ induced paraxial mesoderm progenitors (iPAM) population at day 3 and 4 of differentiation (FIG. 11, compare conditions RDN and RD). We screened a set of BMP inhibitors, including recombinant proteins Noggin (Nog), Chordin (Chd), Chordin-like 1 (Chdl1), Follistatin (Fst), Follistatin-like 1 (Fstl1), Dan family protein including Cerberus 1 (Cerberus) and Gremlin 1 (Grem1); at varying concentration range (10-200 ng/mL), and various time-window (day 0-4, day 1-4) and analyzed the impact on BMP4 and the PSM marker Tbx6 expression. Additionally, we tested the chemical compound Dorsomorphin (Compound C), a specific BMP type I receptor inhibitor, at various concentration (0.1-1 μM) and various time-window (day 0-4, day 1-4).

canonical Wnt signaling = assay: BAT-luc luciferase reporter for canonical Wnt signaling in ES cells; format: cell-based, mouse; conditions: Rspo3 10 ng/mL, 1% FBS medium
HUES1 cells = assay: qRT-PCR of paraxial mesoderm progenitor markers in differentiating human ES cells; format: cell-based; conditions: 15% FBS containing medium, 3 to 10 days of culture
Description: Comparison of the expression of paraxial mesoderm progenitor markers Brachyury (A), PDGFRa (B), Tbx6 (C), Msgn1 (D) measured by Q RT-PCR in HUES1 undifferentiated or cultured in 15% FBS containing medium with or without Rspo3 for up to 10 days. Relative expression to undifferentiated HUES1 cells is shown (fold induction).
Total RNA was extracted from ES cell cultures using Trizol (Invitrogen) or with the Rnaeasy plus mini-kit (Qiagen). RT-PCR was performed on 5 ng total RNA using QuantiFast SYBR Green RT-PCR Kit (Qiagen), appropriate primers and run on a LightCycler 480II (Roche). GAPDH was used as the internal control.
Next, to confirm that R-spondin also induces paraxial mesoderm progenitors (iPAM) cells from human ES cells differentiation, HUES1 cells were plated as single cells and differentiated in 15% FBS containing medium with or without Rspo3. qRT-PCR time course analysis for paraxial mesoderm progenitor markers expression was performed (FIG. 10).

Molecule	effect on number of YFP+ cells (iPAM induction) (Msgn1RepV mouse ES cells; 15% FBS medium)	iPAM maturation, PSM specific marker expression (BMP4)	further results
Cc1c[nH]c(-c2cnc(NCCNc3ccc(C#N)cn3)nc2-c2ccc(Cl)cc2Cl)n1 [CHIR99021, reference compound]	as efficient as Rspo-3		
C[S+](C)[O-] [DMSO, Dimethyl sulfoxide, reference compound]	increase of YFP+ cells		
c1cc(-c2cnn3cc(-c4ccc(OCCN5CCCCC5)cc4)cnc23)ccn1 [Dorsomorphin, 6-[4-(2-Piperidin-1-yl-ethoxy)phenyl]-3-pyridin-4-yl-pyrazolo [1,5-a]pyrimidine, reference compound]		promoting induced paraxial mesoderm progenitors (iPAM) maturation	
B1	significantly increase the number of YFP+ cells		luciferase from BAT-luc canonical Wnt reporter (canonical Wnt signaling): strongly activated; luciferase from BAT-luc canonical Wnt reporter (canonical Wnt signaling; listed as Rspo3): strongly activates the canonical Wnt response; expression of paraxial mesoderm progenitor markers (qRT-PCR) (HUES1 cells): induction of the paraxial mesoderm progenitor markers, Brachyury, PDGFRa, Tbx6 and Msgn1 is observed; also recorded: Strong activation of Msgn1 and Tbx6; induction of YFP+ cells (Msgn1RepV mouse ES cells; 10 ng/mL, both FBS based and KSR based medium, 4 days): up to 70%; YFP+ population of the total population (Msgn1RepV mouse ES cells; day 4 of differentiation, 15% FBS medium, R-spondin3 10 ng/mL): more than 70%
B2	significantly increase the number of YFP+ cells		
B3	sharp decrease of YFP+ induction		
B4		upregulation of several PSM specific markers; also recorded: promoting induced paraxial mesoderm progenitors (iPAM) maturation	BMP4 expression in Msgn1-YFP+ cells (BMP4; added to differentiation medium with Rspo3 and DMSO, day 3 and 4): effectively repress BMP4 expression; also recorded: represses BMP4 expression; total number of Msgn1-YFP+ iPAM cells or total cell number in culture (Msgn1RepV mouse ES cells; added to differentiation medium): does not change the total number
B5		promoting induced paraxial mesoderm progenitors (iPAM) maturation	
